Laboratory results published in PMC9251408 (2022).

How the values were obtained:
IL-10 receptor alpha [1] = target: T1, IL-10 receptor alpha (Mus musculus, UniProt Q61727)
T1 chain: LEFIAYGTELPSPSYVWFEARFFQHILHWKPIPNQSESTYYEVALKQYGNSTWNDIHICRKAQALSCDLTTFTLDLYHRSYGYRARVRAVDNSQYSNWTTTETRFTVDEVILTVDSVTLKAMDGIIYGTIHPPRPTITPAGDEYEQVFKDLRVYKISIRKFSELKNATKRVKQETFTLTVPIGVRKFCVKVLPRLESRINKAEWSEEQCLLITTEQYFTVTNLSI

IL-10 receptor alpha [2] = target: T2, IL-10 receptor alpha (Homo sapiens, UniProt Q13651)
T2 chain: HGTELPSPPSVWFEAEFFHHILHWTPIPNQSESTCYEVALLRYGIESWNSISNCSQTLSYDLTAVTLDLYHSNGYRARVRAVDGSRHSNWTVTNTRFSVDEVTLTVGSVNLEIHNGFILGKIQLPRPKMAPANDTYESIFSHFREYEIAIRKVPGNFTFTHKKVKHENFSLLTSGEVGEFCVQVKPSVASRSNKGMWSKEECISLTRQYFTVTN

B1: mFc-mIL-10 (mouse IL-10 mouse Fc-fusion) (protein)
chain: SRGQYSREDNNCTHFPVGQSHMLLELRTAFSQVKTFFQTKDQLDNILLTDSLMQDFKGYLGCQALSEMIQFYLVEVMPQAEKHGPEIKEHLNSLGEKLKTLRMRLRRCHRFLPCENKSKAVEQVKSDFNKLQDQGVYKAMNEFDIFINCIEAYMMIKMKS
modifications: IL-10 fused to C-terminus of effector-reduced mouse Fc via Gly-Ser linker
Kd (IL-10 receptor alpha [1]): 3.2 nM

B2: hFc-hIL-10 (human IL-10 human Fc-fusion) (protein)
chain: SPGQGTQSENSCTHFPGNLPNMLRDLRDAFSRVKTFFQMKDQLDNLLLKESLLEDFKGYLGCQALSEMIQFYLEEVMPQAENQDPDIKAHVNSLGENLKTLRLRLRRCHRFLPCENKSKAVEQVKNAFNKLQEKGIYKAMSEFDIFINYIEAYMTMKIRN
modifications: IL-10 fused to C-terminus of effector-reduced human Fc via Gly-Ser linker
Kd (IL-10 receptor alpha [1]): 2.9 nM
Kd (IL-10 receptor alpha [2]): 0.6 nM
